Data as given in the RNAGym collection of RNA variant scans (doi:10.1021/acssynbio.7b00057).

B1: Pistol ribozyme (parent)
chain: GGGUCGUUGUUCCAUAAUCGCGUGGAUAUGGCACGCAAGUUUCUACCGGGCACCGUAAAUGUCCGACUGGAGCCGUUCGGGCGGCUAUAAACAGACCUCAGGCCCGAAGCGUGGCGGCACCUGCCGCCGGUGGUAAAAAAGAUCGGAAGAGCACACGUCU

Variants of: B1
Assay: aptazyme ON/OFF ratio, guanine; higher = stronger switching; co-transcriptional cleavage with and without guanine

Point of comparison: U7G U8C G9U U10G U11A, “aptazyme ON/OFF ratio” value 1.21. Against it:
- U7G U8C G9U U10A U11C C12U C13U — higher, 1.56
- U7G U8C G9C U11G C12G C13A — lower, 1.12
- U7G U8C G9C U11G C12G C13G — lower, 1.12
- U7G U8C G9C U11G C12G C13U — lower, 1.1
- U7G U8C U10C C12A — higher, 1.22
- U7G U8C G9U U11A C12A C13A — higher, 1.28
- U7G U8C G9U U11A C12A C13U — higher, 1.5
- U7G U8C G9U U11A C12A C13G — lower, 1.14
- U7G U8C G9U U10C U11C C12A C13U — higher, 1.54
- U7G U8C G9U U10C U11C C12A C13A — higher, 1.52
- U7G U8C G9U U10C U11C C12A C13G — higher, 1.22
- U7G U8C G9U U10G C12A C13A — higher, 1.37
- U7G U8C G9U U10G C12A C13G — lower, 1.11
- U7G U8C G9U U10G C12A C13U — higher, 1.24
- U7G U8C G9U U10G U11A C12U C13G — higher, 1.23
- U7G U8C G9U U10G U11A C12U C13A — the same, 1.21
- U7G U8C G9U U10G U11A C12U C13U — higher, 1.36
- U7G U8C U10A U11C C12A C13U — higher, 1.27
- U7G U8C U10A U11C C12A C13G — higher, 1.23
- U7G U8C U10A U11C C12A C13A — lower, 1.13
- U7G U8C G9U U10A U11C C12A C13G — higher, 1.33
- U7G U8C G9U U10A U11C C12A C13U — higher, 1.59
- U7G U8C G9U U10A U11C C12A C13A — higher, 1.28
- U7G U8C G9U U10A U11A C12U C13U — higher, 1.33
- U7G U8C G9U U10A U11A C12U C13A — higher, 1.23
- U7G U8C G9U U10A U11A C12U C13G — lower, 1.16
- U7G U8C G9U U10C U11C C12G C13U — higher, 1.22
- U7G U8C G9U U10C U11C C12G C13A — higher, 1.45
- U7G U8C G9U U10C U11C C12G C13G — higher, 1.29
- U7G U8C G9U U10G — higher, 3.44
- U7G U8C G9U U10C — higher, 1.64
- U7G U8C G9U U10A — higher, 4.06
- U7G U8C U10A C12G C13A — higher, 1.22
- U7G U8C U10A C12G C13G — lower, 1.15
- U7G U8C U10A C12G C13U — higher, 1.32
- U7G U8C U10A U11G C12G C13G — higher, 1.3
- U7G U8C U10A U11G C12G C13A — higher, 1.22
- U7G U8C U10A U11G C12G C13U — higher, 1.25
- U7G U8C G9U C13G — lower, 1.04
- U7G U8C G9U C13A — higher, 1.36
- U7G U8C G9U C13U — higher, 2.37
- U7G U8C G9U U10C C12A C13U — higher, 1.58
- U7G U8C G9U U10C C12A C13G — higher, 1.27
- U7G U8C G9U U10C C12A C13A — higher, 1.49
- U7G U8C G9U U10C U11A C12U C13A — higher, 1.72
- U7G U8C G9U U10C U11A C12U C13G — higher, 1.39
- U7G U8C G9U U10C U11A C12U C13U — higher, 1.9
- U7G U8C U10A U11C C12U C13A — lower, 1.13
- U7G U8C U10A U11C C12U C13U — lower, 1.07
- U7G U8C U10A U11C C12U C13G — lower, 1.12
- U7G U8C G9U U10G U11G — higher, 1.55
- U7G U8C G9U U10G U11C — lower, 1.15
- U7G U8C G9U C12U — higher, 4.27
- U7G U8C G9U C12G — higher, 3.03
- U7G U8C G9U C12A — higher, 1.35
- U7G U8C G9U U10G U11C C12U — higher, 1.26
- U7G U8C G9U U10G U11C C12A — higher, 2.33
- U7G U8C G9U U10G U11C C12G — higher, 1.38
- U7G U8C G9U U10G U11C C13A — higher, 1.38
- U7G U8C G9U U10G U11C C13G — lower, 1.09
- U7G U8C G9U U10G U11C C13U — lower, 1.18
- U7G U8C U10C C12A C13A — lower, 1.19
- U7G U8C U10A U11G C12A C13U — lower, 1.19
- U7G U8C U10A U11G C12A C13A — lower, 1.08
- U7G U8C U10A U11G C12A C13G — lower, 1.13
- U7G U8C U10A C13G — lower, 1.08
- U7G U8C U10A C13U — lower, 1.12
- U7G U8C U10A C13A — lower, 1.11
- U7G U8C G9U U10A C12U C13U — lower, 1.16
- U7G U8C G9U U10A C12U C13G — lower, 1.16
- U7G U8C G9U U10A C12U C13A — the same, 1.21
- U7G U8C G9U U10C U11G C13U — higher, 1.38
- U7G U8C G9U U10C U11G C13G — lower, 1.09
- U7G U8C G9U U10C U11G C13A — higher, 1.44
- U7G U8C G9U U10A U11A C12G — higher, 1.6
- U7G U8C G9U U10A U11A C12A — higher, 1.63
- U7G U8C G9U U10A U11A C12U — higher, 2.3
- U7G U8C G9U U11C C12G — higher, 1.37
- U7G U8C G9U U11C C12A — higher, 1.31
- U7G U8C G9U U11C C12U — higher, 2.13
- U7G U8C G9U U10G U11A C12G C13A — lower, 1.16
- U7G U8C G9U U10G U11A C12G C13U — higher, 1.25
- U7G U8C G9U U10G U11A C12G C13G — lower, 1.12
- U7G U8C G9U U10C U11C C12G — lower, 1.16
- U7G U8C G9U U10C U11C C12U — higher, 1.29
- U7G U8C G9U U10C U11C C12A — higher, 1.42
- U7G U8C G9U U10C U11G C12G C13G — lower, 1.11
- U7G U8C G9U U10C U11G C12G C13U — lower, 1.08
- U7G U8C G9U U10C U11G C12G C13A — lower, 1.08
- U7G U8C G9U U10A U11C C12G C13U — higher, 1.31
- U7G U8C G9U U10A U11C C12G C13A — lower, 1.14
- U7G U8C G9U U10A U11C C12G C13G — lower, 1.05
- U7G U8C G9U U10C U11G C12U C13U — higher, 1.28
- U7G U8C G9U U10C U11G C12U C13A — higher, 1.34
- U7G U8C G9U U10C U11G C12U C13G — the same, 1.21
- U7G U8C U10A U11A C12A C13A — lower, 1.13
- U7G U8C U10A U11A C12A C13G — lower, 1.14
- U7G U8C U10A U11A C12A C13U — lower, 1.15
- U7G U8C G9U U10C C13U — higher, 1.47
- U7G U8C G9U U10C C13A — higher, 1.37
- U7G U8C G9U U10C C13G — lower, 1.12
- U7G U8C G9U U10G U11A C12A — higher, 1.3
- U7G U8C G9U U10G U11A C12U — lower, 1.1
- U7G U8C G9U U10G U11A C12G — higher, 1.34
- U7G U8C G9U U10G U11G C12G C13G — higher, 1.23
- U7G U8C G9U U10G U11G C12G C13A — lower, 1.11
- U7G U8C G9U U10G U11G C12G C13U — higher, 1.25
- U7G U8C G9U C12A C13G — higher, 1.26
- U7G U8C G9U C12A C13A — higher, 1.34
- U7G U8C G9U C12A C13U — lower, 1.2
- U7G U8C G9U U10C C12A — higher, 2.08
- U7G U8C G9U U10C C12G — higher, 1.87
- U7G U8C G9U U10C C12U — lower, 1.12
- U7G U8C G9U U10A U11A C12A C13G — lower, 1.11
- U7G U8C G9U U10A U11A C12A C13A — higher, 1.29
- U7G U8C G9U U10A U11A C12A C13U — higher, 1.32
- U7G U8C U10A U11G C12G — lower, 1.19
- U7G U8C U10A U11G C12U — higher, 1.22
- U7G U8C U10A U11G C12A — lower, 1.1
- U7G U8C G9U U10C U11A C12A C13U — higher, 2.1
- U7G U8C G9U U10C U11A C12A C13G — higher, 1.31
- U7G U8C G9U U10C U11A C12A C13A — higher, 1.52
- U7G U8C G9U U10G U11A C12A C13G — lower, 1.15
- U7G U8C G9U U10G U11A C12A C13U — higher, 1.38
- U7G U8C G9U U10G U11A C12A C13A — lower, 1.12
- U7G U8C U10A U11C C12U — lower, 1.03
- U7G U8C U10A U11C C12G — lower, 1.16
- U7G U8C U10A U11C C12A — higher, 1.24
- U7G U8C U10A U11G C12U C13A — higher, 1.22
- U7G U8C U10A U11G C12U C13U — lower, 1.16
- U7G U8C U10A U11G C12U C13G — lower, 1.16
- U7G U8C U10A C12U C13G — higher, 1.26
- U7G U8C U10A C12U C13A — higher, 1.36
- U7G U8C U10A C12U C13U — lower, 1.12
- U7G U8C G9C U11G C13A — higher, 1.24
- U7G U8C G9C U11G C13G — lower, 1.17
- U7G U8C G9C U11G C13U — higher, 1.25
- U7G U8C U10A U11G — higher, 1.29
- U7G U8C U10A U11C — lower, 1.04
- U7G U8C U10A U11A — higher, 2.71
- U7G U8C U10A U11C C13U — lower, 1.04
- U7G U8C U10A U11C C13G — lower, 1.04
- U7G U8C U10A U11C C13A — lower, 1.05
- U7G U8C G9U U10C U11A C13U — higher, 1.79
- U7G U8C G9U U10C U11A C13A — higher, 1.49
- U7G U8C G9U U10C U11A C13G — lower, 1.06
- U7G U8C G9U U10A U11G C13G — lower, 1.1
- U7G U8C G9U U10A U11G C13U — higher, 1.38
- U7G U8C G9U U10A U11G C13A — lower, 1.14
- U7G U8C G9U U10G U11G C12A C13A — lower, 1.11
- U7G U8C G9U U10G U11G C12A C13U — higher, 1.34
- U7G U8C G9U U10G U11G C12A C13G — lower, 1.12
- U7G U8C G9U U10C U11C — higher, 1.32
- U7G U8C G9U U10C U11G — higher, 1.76
- U7G U8C G9U U10C U11A — higher, 3.02
- U7G U8C G9U U10G U11G C12U C13U — higher, 1.44
- U7G U8C G9U U10G U11G C12U C13G — lower, 1.08
- U7G U8C G9U U10G U11G C12U C13A — lower, 1.17
- U7G U8C U10A U11A C12G C13A — lower, 1.1
- U7G U8C U10A U11A C12G C13U — higher, 1.26
- U7G U8C U10A U11A C12G C13G — higher, 1.22
- U7G U8C G9U U11C C12A C13U — higher, 1.23
- U7G U8C G9U U11C C12A C13G — higher, 1.32
- U7G U8C G9U U11C C12A C13A — higher, 1.36
- U7G U8C G9C U11G C12G — lower, 1.07
- U7G U8C G9C U11G C12U — higher, 1.66
